Laboratory results published in patent US20250270289.

Target: Cav(pnY)GFP
Sequence (Q03135 whole entry): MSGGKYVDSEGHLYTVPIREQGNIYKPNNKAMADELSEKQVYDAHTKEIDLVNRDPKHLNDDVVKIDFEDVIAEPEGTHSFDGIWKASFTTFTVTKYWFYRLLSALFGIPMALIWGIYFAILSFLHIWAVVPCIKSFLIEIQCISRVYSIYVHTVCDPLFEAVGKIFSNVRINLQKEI

Protein | dephosphorylation of pnY (Western blot with phospho-caveolin antibody) | dephosphorylation of pnY, seen as loss of the phospho-caveolin antibody signal in a Western blot
calf-intestinal alkaline phosphatase (protein) LVPVEEEDPAFWNRQAAQALDVAKKLQPIQTAAKNVILFLGDGMGVPTVTATRILKGQMNGKLGPETPLAMDQFPYVALSKTYNVDRQVPDSAGTATAYLCGVKGNYRTIGVSAAARYNQCKTTRGNEVTSVMNRAKKAGKSVGVVTTTRVQHASPAGAYAHTVNRNWYSDADLPADAQMNGCQDIAAQLVNNMDIDVILGGGRKYMFPVGTPDPEYPDDASVNGVRKRKQNLVQAWQAKHQGAQYVWNRTALLQAADDSSVTHLMGLFEPADMKYNVQQDHTKDPTLQEMTEVALRVVSRNPRGFYLFVEGGRIDHGHHDDKAYMALTEAGMFDNAIAKANELTSELDTLILVTADHSHVFSFGGYTLRGTSIFGLAPSKALDSKSYTSILYGNGPGYALGGGSRPDVNDSTSEDPSYQQQAAVPQASETHGGEDVAVFARGPQAHLVHGVEEETFVAHIMAFAGCVEPYTDCNLPAPTTATSIPD | Cav(pnY)GFP was stable in buffered conditions, but dephosphorylated in a time and concentration dependent fashion | IB:pCav band present with CIP buffer alone, absent with CIP buffer + enzyme; total protein band present in both lanes
protein Tyr phosphatase 1B (protein) MEMEKEFEQIDKSGSWAAIYQDIRHEASDFPCRVAKLPKNKNRNRYRDVSPFDHSRIKLHQEDNDYINASLIKMEEAQRSYILTQGPLPNTCGHFWEMVWEQKSRGVVMLNRVMEKGSLKCAQYWPQKEEKEMIFEDTNLKLTLISEDIKSYYTVRQLELENLTTQETREILHFHYTTWPDFGVPESPASFLNFLFKVRESGSLSPEHGPVVVHCSAGIGRSGTFCLADTCLLLMDKRKDPSSVDIKKVLLEMRKFRMGLIQTADQLRFSYLAVIEGAKFIMGDSSVQDQWKELSHEDLEPPPEHIPPPPRPPKRILEPHN | Cav(pnY)GFP was stable in buffered conditions, but dephosphorylated in a time and concentration dependent fashion | IB:pCav band present with PTP1B buffer alone, absent with PTP1B buffer + enzyme; total protein band present in both lanes, faint in the enzyme lane
